Measurements published in US20220213456.

Experiments:
[1] = test system: T1, OMNI-36 (Blastopirellula marina); test: cleavage_in_vitro; conditions: TXTL; PAM NNYCCC; V1, V2 tested
T1 sequence: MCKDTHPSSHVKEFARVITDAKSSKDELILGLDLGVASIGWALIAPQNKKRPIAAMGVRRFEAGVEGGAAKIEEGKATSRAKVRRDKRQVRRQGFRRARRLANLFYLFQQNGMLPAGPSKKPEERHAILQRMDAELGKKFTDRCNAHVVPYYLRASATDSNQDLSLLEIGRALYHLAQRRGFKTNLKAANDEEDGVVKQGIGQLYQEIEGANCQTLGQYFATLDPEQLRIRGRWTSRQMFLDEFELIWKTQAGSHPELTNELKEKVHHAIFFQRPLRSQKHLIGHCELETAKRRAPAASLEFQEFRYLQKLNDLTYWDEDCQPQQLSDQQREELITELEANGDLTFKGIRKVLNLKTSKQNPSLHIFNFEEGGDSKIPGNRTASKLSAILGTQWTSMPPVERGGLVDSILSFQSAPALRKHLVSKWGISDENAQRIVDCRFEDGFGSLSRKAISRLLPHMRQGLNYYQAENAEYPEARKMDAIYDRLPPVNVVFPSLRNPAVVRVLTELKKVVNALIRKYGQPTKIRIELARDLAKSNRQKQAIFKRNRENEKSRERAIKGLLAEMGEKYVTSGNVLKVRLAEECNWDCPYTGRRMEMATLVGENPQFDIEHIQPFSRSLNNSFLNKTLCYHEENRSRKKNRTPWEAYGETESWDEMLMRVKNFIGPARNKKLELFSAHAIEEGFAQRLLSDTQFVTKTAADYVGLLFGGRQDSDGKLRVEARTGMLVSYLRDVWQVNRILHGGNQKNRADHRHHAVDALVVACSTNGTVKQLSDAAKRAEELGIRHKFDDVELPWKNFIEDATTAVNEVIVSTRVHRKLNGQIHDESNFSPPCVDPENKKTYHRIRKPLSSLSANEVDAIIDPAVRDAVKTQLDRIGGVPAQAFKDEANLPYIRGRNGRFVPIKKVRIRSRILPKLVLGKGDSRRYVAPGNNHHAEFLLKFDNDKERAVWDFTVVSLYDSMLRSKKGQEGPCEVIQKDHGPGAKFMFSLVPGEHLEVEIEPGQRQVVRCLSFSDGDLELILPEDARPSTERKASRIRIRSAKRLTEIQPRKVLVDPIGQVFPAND

[2] = test system: T2, OMNI-53 (Clostridium sp. AF02-29); test: cell_activity; conditions: E. coli plasmid depletion; PAM NRTA
T2 sequence: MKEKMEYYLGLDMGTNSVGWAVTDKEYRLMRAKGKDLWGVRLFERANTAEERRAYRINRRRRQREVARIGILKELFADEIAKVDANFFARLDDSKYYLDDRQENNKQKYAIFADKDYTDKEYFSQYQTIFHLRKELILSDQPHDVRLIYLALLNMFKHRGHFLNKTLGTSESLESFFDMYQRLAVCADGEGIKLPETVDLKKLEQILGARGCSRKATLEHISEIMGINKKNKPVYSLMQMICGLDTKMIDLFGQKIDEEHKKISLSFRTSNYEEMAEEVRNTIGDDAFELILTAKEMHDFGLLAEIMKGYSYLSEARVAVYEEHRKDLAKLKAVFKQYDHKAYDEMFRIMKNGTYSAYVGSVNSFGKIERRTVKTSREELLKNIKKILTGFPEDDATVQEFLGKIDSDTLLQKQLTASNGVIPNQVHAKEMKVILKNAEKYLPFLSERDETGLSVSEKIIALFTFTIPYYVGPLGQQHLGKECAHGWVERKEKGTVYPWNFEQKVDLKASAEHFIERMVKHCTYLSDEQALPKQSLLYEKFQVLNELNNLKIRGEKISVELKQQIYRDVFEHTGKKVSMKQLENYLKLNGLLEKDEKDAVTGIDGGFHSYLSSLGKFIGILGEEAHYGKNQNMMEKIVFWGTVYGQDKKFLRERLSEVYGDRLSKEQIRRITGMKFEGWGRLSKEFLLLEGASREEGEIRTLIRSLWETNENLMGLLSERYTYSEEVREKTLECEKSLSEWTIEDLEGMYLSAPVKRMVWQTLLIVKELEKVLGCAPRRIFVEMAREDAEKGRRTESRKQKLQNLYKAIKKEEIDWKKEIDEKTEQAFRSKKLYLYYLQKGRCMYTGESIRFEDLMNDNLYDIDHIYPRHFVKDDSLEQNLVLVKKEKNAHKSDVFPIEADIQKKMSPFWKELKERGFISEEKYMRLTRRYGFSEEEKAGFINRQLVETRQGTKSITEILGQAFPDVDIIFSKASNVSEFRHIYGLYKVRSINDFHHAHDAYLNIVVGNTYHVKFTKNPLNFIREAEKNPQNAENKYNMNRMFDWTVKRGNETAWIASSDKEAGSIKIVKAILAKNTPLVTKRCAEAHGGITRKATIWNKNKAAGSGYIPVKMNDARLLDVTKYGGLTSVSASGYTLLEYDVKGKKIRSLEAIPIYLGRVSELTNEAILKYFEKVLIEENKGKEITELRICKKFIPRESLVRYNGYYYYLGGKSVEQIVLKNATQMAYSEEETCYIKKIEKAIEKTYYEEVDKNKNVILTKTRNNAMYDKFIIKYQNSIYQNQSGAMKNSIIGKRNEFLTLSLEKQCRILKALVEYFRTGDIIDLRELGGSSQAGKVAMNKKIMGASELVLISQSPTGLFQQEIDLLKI

[3] = test system: T2, OMNI-53 (Clostridium sp. AF02-29); test: cleavage_in_vitro; conditions: TXTL; PAM NRHR (specific NAWA)
[4] = test system: T3, OMNI-39 (Butyrivibrio sp. AC2005); test: cell_activity; conditions: E. coli plasmid depletion; PAM NNGYAD (specific NNGYAA)
T3 sequence: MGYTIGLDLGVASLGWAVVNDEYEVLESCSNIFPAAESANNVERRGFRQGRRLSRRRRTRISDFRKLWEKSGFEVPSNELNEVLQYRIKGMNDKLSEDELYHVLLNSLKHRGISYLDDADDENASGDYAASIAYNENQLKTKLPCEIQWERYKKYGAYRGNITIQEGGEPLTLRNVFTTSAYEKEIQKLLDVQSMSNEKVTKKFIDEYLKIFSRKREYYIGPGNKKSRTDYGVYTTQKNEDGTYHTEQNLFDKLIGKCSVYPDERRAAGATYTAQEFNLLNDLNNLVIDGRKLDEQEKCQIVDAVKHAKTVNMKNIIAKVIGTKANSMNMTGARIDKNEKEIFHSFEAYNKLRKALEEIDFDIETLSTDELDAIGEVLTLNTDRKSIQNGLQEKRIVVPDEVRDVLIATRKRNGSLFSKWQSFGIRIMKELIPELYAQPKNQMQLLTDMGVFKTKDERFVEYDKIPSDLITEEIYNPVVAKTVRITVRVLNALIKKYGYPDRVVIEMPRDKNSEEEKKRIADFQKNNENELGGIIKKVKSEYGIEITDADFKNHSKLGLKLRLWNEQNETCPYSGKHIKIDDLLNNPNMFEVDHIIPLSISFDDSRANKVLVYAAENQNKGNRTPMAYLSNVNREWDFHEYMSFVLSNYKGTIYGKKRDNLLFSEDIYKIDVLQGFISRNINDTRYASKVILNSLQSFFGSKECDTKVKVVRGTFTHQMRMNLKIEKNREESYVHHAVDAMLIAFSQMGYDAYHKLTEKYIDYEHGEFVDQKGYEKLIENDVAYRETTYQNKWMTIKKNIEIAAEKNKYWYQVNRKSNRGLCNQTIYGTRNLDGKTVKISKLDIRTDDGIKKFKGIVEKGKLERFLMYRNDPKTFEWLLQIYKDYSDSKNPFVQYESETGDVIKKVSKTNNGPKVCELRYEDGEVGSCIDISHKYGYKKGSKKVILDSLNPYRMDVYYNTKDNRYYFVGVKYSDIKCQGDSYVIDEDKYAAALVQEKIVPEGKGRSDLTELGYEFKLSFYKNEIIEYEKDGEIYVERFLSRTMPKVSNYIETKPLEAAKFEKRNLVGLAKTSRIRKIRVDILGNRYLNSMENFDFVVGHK

[5] = test system: T3, OMNI-39 (Butyrivibrio sp. AC2005); test: cleavage_in_vitro; conditions: TXTL; PAM NNGHAD (specific NNGYAA)
OMNI-40 (bacterium LF-3) [6] = test system: T4, OMNI-40 (bacterium LF-3); test: cell_activity; conditions: E. coli plasmid depletion; PAM NYGRV (specific NYGAV)
T4 sequence: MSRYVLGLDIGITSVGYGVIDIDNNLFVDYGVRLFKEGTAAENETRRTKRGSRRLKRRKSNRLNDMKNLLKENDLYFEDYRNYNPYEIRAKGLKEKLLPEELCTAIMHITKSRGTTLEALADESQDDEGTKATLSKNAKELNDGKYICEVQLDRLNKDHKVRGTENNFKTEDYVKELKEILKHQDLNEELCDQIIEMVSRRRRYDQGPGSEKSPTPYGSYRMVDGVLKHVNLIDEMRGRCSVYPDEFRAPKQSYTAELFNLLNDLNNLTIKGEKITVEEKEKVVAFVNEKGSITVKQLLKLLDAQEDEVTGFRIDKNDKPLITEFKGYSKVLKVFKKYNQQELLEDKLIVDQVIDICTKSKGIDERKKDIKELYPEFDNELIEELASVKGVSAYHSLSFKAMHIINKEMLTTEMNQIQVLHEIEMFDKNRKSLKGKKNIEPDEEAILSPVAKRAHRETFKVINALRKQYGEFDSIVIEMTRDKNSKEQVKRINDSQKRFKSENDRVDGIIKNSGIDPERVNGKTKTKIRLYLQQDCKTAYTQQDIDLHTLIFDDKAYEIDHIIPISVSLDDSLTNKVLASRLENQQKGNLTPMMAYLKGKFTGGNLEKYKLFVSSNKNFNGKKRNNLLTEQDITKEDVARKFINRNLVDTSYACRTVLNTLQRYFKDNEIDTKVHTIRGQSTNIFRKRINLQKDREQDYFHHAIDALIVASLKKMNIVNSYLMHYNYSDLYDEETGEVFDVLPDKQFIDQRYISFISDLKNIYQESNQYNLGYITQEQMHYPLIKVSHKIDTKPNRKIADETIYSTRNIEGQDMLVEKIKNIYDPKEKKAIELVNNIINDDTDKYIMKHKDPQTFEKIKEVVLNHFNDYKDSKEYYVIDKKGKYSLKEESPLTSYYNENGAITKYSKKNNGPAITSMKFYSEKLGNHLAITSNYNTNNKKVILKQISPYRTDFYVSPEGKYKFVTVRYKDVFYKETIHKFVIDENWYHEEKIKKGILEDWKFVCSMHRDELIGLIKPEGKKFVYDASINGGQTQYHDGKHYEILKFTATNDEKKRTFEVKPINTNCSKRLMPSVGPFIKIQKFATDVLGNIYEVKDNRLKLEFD

OMNI-40 (bacterium LF-3) [7] = test system: T4, OMNI-40 (bacterium LF-3); test: cleavage_in_vitro; conditions: TXTL; PAM NYGRV

GGAAGAGCAGAGCCUUGGUCUCGCUGUGGCUUGGAGGGAAUCGUGAAAACGAUUGCUUCGCAAGUCAUAGUAAAGCAAUAGUCAGCGAAAGGUUUGCUCACGGAGCAUUCCGUCGAGUACCCUUUGACGCCUCCCAGCGGGGCGUCUUUUUUU / GGAAGAGCAGAGCCTTGGTCTCNNNNNNNN / NNNNNNNNGAGACCAAGGCTCTGCTCTTCC [OMNI-36 T2 sgRNA V1 ; pbPOS T2 protospacer 8N PAM library]
activity (1-depletion score) [1]: 0.99

GGAAGAGCAGAGCCUUGGUCUCGUUUGAGAACCAUGGAAACAUGGUGAGUGCAAAUAAGGAUUAUCCGAAAUUGUAUGCCCGCAUUGUGCGGCAAUAAAAAGGCUCGAAAGAGUCUUUUU / GGAAGAGCAGAGCCTTGGTCTCNNNNNNNN / NNNNNNNNGAGACCAAGGCTCTGCTCTTCC [OMNI-53 T2 sgRNA V1 ; pbPOS T2 protospacer 8N PAM library]
activity (1-depletion score) [2]: 1 | activity (1-depletion score) [3]: 0.97

GGAAGAGCAGAGCCUUGGUCUCGUUUUAGUACCUAGAGAAAGAAAUUUCUUUAGACCUACUAAAAUAAGGCUUUAUGCCGAGAUUAAAGGAUGCCGACGGGCAUCCUUUUUU / GGAAGAGCAGAGCCTTGGTCTCNNNNNNNN / NNNNNNNNGAGACCAAGGCTCTGCTCTTCC [OMNI-39 T2 sgRNA V2 ; pbPOS T2 protospacer 8N PAM library]
activity (1-depletion score) [4]: 0.99 | activity (1-depletion score) [5]: 0.95

GGAAGAGCAGAGCCUUGGUCUCGUUUUGUUACCAUAUGAUUGAAAAUUUAUAUGACCUAACAAAACAAGGGUUUAUCCCGGACUCGGCUCUUCGGAGCCUUUUU / GGAAGAGCAGAGCCTTGGTCTCNNNNNNNN / NNNNNNNNGAGACCAAGGCTCTGCTCTTCC [OMNI-40 T2 sgRNA V2 ; pbPOS T2 protospacer 8N PAM library]
activity (1-depletion score) (OMNI-40 (bacterium LF-3) [6]): 0.95 | activity (1-depletion score) (OMNI-40 (bacterium LF-3) [7]): 0.97
